# Measured values as given in patent US20200297863A1, “ANTI-EGFR ANTIBODY DRUG CONJUGATES (ADC) AND USES THEREOF” (AbbVie Inc., priority 2017, published 2020).
# B1: AbA-MMAE: AbA conjugated to monomethyl auristatin E via a cleavable valine-citrulline (VC) linker; DAR about 3 (conjugate, chains of the INN, looked up)
# VH: EVQLQESGPGLVKPSQTLSLTCTVSGYSISRDFAWNWIRQPPGKGLEWMGYISYNGNTRYQPSLKSRITISRDTSKNQFFLKLNSVTAADTATYYCVTASRGFPYWGQGTLVTVSS
# VL: DIQMTQSPSSMSVSVGDRVTITCHSSQDINSNIGWLQQKPGKSFKGLIYHGTNLDDGVPSRFSGSGSGTDYTLTISSLQPEDFATYYCVQYAQFPWTFGGGTKLEIK
# modifications: vc-MMAE payload, DAR about 3
# Columns and labels:
# [1] = system: CTG-9786; test: CTG-9786 patient-derived head and neck cancer xenograft model; assay type: in vivo; conditions: much higher dose than the PBD ADCs
# Excerpt: (§1) Numbers in parentheses represent dose in mg/kg, and arrows represent days of dosing.
# [2] = system: CTG-0162; test: CTG-0162 patient-derived NSCLC xenograft model; assay type: in vivo; conditions: dosed ten-fold higher than the PBD ADCs
# Excerpt: as §1
# [3] = system: LoVo; test: LoVo colorectal adenocarcinoma xenograft model; assay type: in vivo, mice; conditions: administered at a much higher dose than the PBD conjugates
# Description: Numbers in parentheses represent dose in mg/kg. Arrows represent days of dosing.
# Both conjugates were administered at 0.5mg/kg on a q7dx6 regimen (where mice were dosed every 7 days for 6 weeks).
molecule,measurement,setting,value
B1,inhibition of tumor growth,[1],"effective, but required a much higher dose"
same,inhibition of tumor growth,[2],less efficacious
same,tumor response,[3],"active in this model, with activity similar to that observed with Ab1(S239C)-PBD"
